B1: Glutaredoxin-3 (Homo sapiens), O76003 (parent)
chain: MAAGAAEAAVAAVEEVGSAGQFEELLRLKAKSLLVVHFWAPWAPQCAQMNEVMAELAKELPQVSFVKLEAEGVPEVSEKYEISSVPTFLFFKNSQKIDRLDGAHAPELTKKVQRHASSGSFLPSANEHLKEDLNLRLKKLTHAAPCMLFMKGTPQEPRCGFSKQMVEILHKHNIQFSSFDIFSDEEVRQGLKAYSSWPTYPQLYVSGELIGGLDIIKELEASEELDTICPKAPKLEERLKVLTNKASVMLFMKGNKQEAKCGFSKQILEILNSTGVEYETFDILEDEEVRQGLKAYSNWPTYPQLYVKGELVGGLDIVKELKENGELLPILRGEN
partner: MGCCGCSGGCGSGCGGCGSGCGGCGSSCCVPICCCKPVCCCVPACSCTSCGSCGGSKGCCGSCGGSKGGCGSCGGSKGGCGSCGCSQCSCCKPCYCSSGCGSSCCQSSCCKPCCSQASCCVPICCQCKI
B2: Ras suppressor protein 1 (Homo sapiens), Q15404 (parent)
chain: MSKSLKKLVEESREKNQPEVDMSDRGISNMLDVNGLFTLSHITQLVLSHNKLTMVPPNIAELKNLEVLNFFNNQIEELPTQISSLQKLKHLNLGMNRLNTLPRGFGSLPALEVLDLTYNNLSENSLPGNFFYLTTLRALYLSDNDFEILPPDIGKLTKLQILSLRDNDLISLPKEIGELTQLKELHIQGNRLTVLPPELGNLDLTGQKQVFKAENNPWVTPIADQFQLGVSHVFEYIRSETYKYLYGRHMQANPEPPKKNNDKSKKISRKPLAAKNR
B3: Synaptotagmin-16 (Homo sapiens), Q17RD7 (parent)
chain: MVLAMASQDVQNFFQPFSSWISRVYEALQQAGDMLSASLVNISKQDSKLSDKLDQDLDNIQIQETYFEDEEQDNDWSQEDANSLFLEVDHFSCCNSDLQDSAQNSSPSLSQHAKDSCSTMSQWPNWASDDRKLPHVLSSIAEEEHHLEKQRSGLQHGFDSQLPGTLETVNGKKQVNSFGDDEELSTSSDSDEEVIKQFEISVSRSQSFRSVTSEKGKQTGLEQKPKFSRSLLTHGEDGTEVSACEDLDGASQRRYSENLSYGEDDHIPAHSQSPCERGDAKHHGTSHQESSVVQSLRRQSTEGSLEMETAFNSRGFEDSYATDSSSMWSPEEQDRTNLQVPSGVSEPISKCGDLDVIFEYRAASQKLTVTIVRAQGLPDKDRSGVNSWQVHVVLLPGKKHRGRTNIQRGPNPVFREKVTFAKLEPRDVAACAVRFRLYAARKMTRERMMGEKLFYLSHLHPEGEMKVTLVLEPRSNISSGGSPLSPSAVSHSDSTSSTQSLSHGGAPELLVGLSYNATTGRLSVEMIKGSHFRNLAVNRAPDTYGKLFLLNSVGQEMSRCKTSIRRGQPNPVYKETFVFQVALFQLSDVTLMISVYNRRTMKRKEMIGWIALGQNSSGEEEQDHWEEMKETKGQQICRWHTLLES
partner: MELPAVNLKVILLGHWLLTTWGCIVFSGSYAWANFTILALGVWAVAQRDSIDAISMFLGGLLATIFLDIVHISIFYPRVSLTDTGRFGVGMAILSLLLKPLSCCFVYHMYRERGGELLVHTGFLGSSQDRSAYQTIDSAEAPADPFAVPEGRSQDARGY
B4: Protein VAC14 homolog (Homo sapiens), Q08AM6 (parent)
chain: MNPEKDFAPLTPNIVRALNDKLYEKRKVAALEIEKLVREFVAQNNTVQIKHVIQTLSQEFALSQHPHSRKGGLIGLAACSIALGKDSGLYLKELIEPVLTCFNDADSRLRYYACEALYNIVKVARGAVLPHFNVLFDGLSKLAADPDPNVKSGSELLDRLLKDIVTESNKFDLVSFIPLLRERIYSNNQYARQFIISWILVLESVPDINLLDYLPEILDGLFQILGDNGKEIRKMCEVVLGEFLKEIKKNPSSVKFAEMANILVIHCQTTDDLIQLTAMCWMREFIQLAGRVMLPYSSGILTAVLPCLAYDDRKKSIKEVANVCNQSLMKLVTPEDDELDELRPGQRQAEPTPDDALPKQEGTASGGPDGSCDSSFSSGISVFTAASTERAPVTLHLDGIVQVLNCHLSDTAIGMMTRIAVLKWLYHLYIKTPRKMFRHTDSLFPILLQTLSDESDEVILKDLEVLAEIASSPAGQTDDPGPLDGPDLQASHSELQVPTPGRAGLLNTSGTKGLECSPSTPTMNSYFYKFMINLLKRFSSERKLLEVRGPFIIRQLCLLLNAENIFHSMADILLREEDLKFASTMVHALNTILLTSTELFQLRNQLKDLKTLESQNLFCCLYRSWCHNPVTTVSLCFLTQNYRHAYDLIQKFGDLEVTVDFLAEVDKLVQLIECPIFTYLRLQLLDVKNNPYLIKALYGLLMLLPQSSAFQLLSHRLQCVPNPELLQTEDSLKAAPKSQKADSPSIDYAELLQHFEKVQNKHLEVRHQRSGRGDHLDRRVVL
partner: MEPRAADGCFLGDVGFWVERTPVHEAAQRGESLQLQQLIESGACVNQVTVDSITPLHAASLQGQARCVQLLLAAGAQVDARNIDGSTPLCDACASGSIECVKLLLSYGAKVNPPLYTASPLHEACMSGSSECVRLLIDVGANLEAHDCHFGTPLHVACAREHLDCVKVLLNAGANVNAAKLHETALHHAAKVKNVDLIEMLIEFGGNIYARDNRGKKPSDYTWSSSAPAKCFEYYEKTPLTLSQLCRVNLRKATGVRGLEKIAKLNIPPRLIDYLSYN
B5: Multifunctional procollagen lysine hydroxylase and glycosyltransferase LH3 (Homo sapiens), O60568 (parent)
chain: MTSSGPGPRFLLLLPLLLPPAASASDRPRGRDPVNPEKLLVITVATAETEGYLRFLRSAEFFNYTVRTLGLGEEWRGGDVARTVGGGQKVRWLKKEMEKYADREDMIIMFVDSYDVILAGSPTELLKKFVQSGSRLLFSAESFCWPEWGLAEQYPEVGTGKRFLNSGGFIGFATTIHQIVRQWKYKDDDDDQLFYTRLYLDPGLREKLSLNLDHKSRIFQNLNGALDEVVLKFDRNRVRIRNVAYDTLPIVVHGNGPTKLQLNYLGNYVPNGWTPEGGCGFCNQDRRTLPGGQPPPRVFLAVFVEQPTPFLPRFLQRLLLLDYPPDRVTLFLHNNEVFHEPHIADSWPQLQDHFSAVKLVGPEEALSPGEARDMAMDLCRQDPECEFYFSLDADAVLTNLQTLRILIEENRKVIAPMLSRHGKLWSNFWGALSPDEYYARSEDYVELVQRKRVGVWNVPYISQAYVIRGDTLRMELPQRDVFSGSDTDPDMAFCKSFRDKGIFLHLSNQHEFGRLLATSRYDTEHLHPDLWQIFDNPVDWKEQYIHENYSRALEGEGIVEQPCPDVYWFPLLSEQMCDELVAEMEHYGQWSGGRHEDSRLAGGYENVPTVDIHMKQVGYEDQWLQLLRTYVGPMTESLFPGYHTKARAVMNFVVRYRPDEQPSLRPHHDSSTFTLNVALNHKGLDYEGGGCRFLRYDCVISSPRKGWALLHPGRLTHYHEGLPTTWGTRYIMVSFVDP
partner: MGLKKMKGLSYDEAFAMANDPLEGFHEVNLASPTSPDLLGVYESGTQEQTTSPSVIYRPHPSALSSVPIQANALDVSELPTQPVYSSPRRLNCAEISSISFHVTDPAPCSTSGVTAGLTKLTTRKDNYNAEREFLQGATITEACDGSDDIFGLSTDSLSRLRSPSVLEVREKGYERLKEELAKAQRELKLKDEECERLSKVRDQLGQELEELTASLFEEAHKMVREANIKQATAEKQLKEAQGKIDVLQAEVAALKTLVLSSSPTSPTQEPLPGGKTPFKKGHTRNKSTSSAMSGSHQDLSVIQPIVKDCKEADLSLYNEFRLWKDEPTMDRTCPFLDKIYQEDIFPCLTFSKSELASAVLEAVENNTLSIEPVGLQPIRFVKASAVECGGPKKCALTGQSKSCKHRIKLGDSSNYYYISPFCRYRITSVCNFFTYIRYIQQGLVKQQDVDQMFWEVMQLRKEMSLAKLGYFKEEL
B6: Genetic suppressor element 1 (Homo sapiens), Q14687 (parent)
chain: MKGMSHEPKSPSLGMLSTATRTTATVNPLTPSPLNGALVPSGSPATSSALSAQAAPSSSFAAALRKLAKQAEEPRGSSLSSESSPVSSPATNHSSPASTPKRVPMGPIIVPPGGHSVPSTPPVVTIAPTKTVNGVWRSESRQDAGSRSSSGGRERLIVEPPLPQEKAGGPAIPSHLLSTPYPFGLSPSSVVQDSRFPPLNLQRPVHHVVPPSTVTEDYLRSFRPYHTTDDLRMSSLPPLGLDPATAAAYYHPSYLAPHPFPHPAFRMDDSYCLSALRSPFYPIPTPGSLPPLHPSAMHLHLSGVRYPPELSHSSLAALHSERMSGLSAERLQMDEELRREREREREREREREADREREKEREREREKEREQEKEREREKERERELERQREQRAREKELLAAKALEPSFLPVAELHGLRGHATEERGKPSEQLTPTRAEKLKDAGLQAPKPVQHPLHPVPTPHHTVPSLISNHGIFSLPSSSAATALLIQRTNEEEKWLARQRRLRQEKEDRQSQVSEFRQQVLEQHLDMGRPPVPAEAEHRPESTTRPGPNRHEPGGRDPPQHFGGPPPLISPKPQLHAAPTALWNPVSLMDNTLETRRAESHSLHSHPAAFEPSRQAAVPLVKVERVFCPEKAEEGPRKREPAPLDKYQPPPPPPREGGSLEHQPFLPGPGPFLAELEKSTQTILGQQRASLPQAATFGELSGPLKPGSPYRPPVPRAPDPAYIYDEFLQQRRRLVSKLDLEERRRREAQEKGYYYDLDDSYDESDEEEVRAHLRCVAEQPPLKLDTSSEKLEFLQLFGLTTQQQKEELVAQKRRKRRRMLRERSPSPPTIQSKRQTPSPRLALSTRYSPDEMNNSPNFEEKKKFLTIFNLTHISAEKRKDKERLVEMLRAMKQKALSAAVADSLTNSPRDSPAVSLSEPATQQASLDVEKPVGVAASLSDIPKAAEPGKLEQVRPQELSRVQELAPASGEKARLSEAPGGKKSLSMLHYIRGAAPKDIPVPLSHSTNGKSKPWEPFVAEEFAHQFHESVLQSTQKALQKHKGSVAVLSAEQNHKVDTSVHYNIPELQSSSRAPPPQHNGQQEPPTARKGPPTQELDRDSEEEEEEDDEDGEDEEEVPKRKWQGIEAVFEAYQEHIEEQNLERQVLQTQCRRLEARHYSLSLTAEQLSHSVAELRSQKQKMVSERERLQAELDHLRKCLALPAMHWPRGYLKGYPR
partner: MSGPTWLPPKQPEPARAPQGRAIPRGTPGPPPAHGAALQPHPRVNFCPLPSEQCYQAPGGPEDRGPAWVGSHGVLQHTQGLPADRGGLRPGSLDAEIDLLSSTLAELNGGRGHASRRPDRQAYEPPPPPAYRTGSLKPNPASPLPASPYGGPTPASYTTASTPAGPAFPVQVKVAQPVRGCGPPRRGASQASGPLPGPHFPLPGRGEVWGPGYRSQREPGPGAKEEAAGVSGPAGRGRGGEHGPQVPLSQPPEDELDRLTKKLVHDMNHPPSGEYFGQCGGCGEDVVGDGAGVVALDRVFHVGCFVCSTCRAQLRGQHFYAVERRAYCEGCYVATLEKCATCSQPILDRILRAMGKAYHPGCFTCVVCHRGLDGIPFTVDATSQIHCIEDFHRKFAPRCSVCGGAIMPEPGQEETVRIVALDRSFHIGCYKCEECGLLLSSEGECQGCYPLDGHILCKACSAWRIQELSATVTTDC

Variants of: B1
Conditions: with kra56_human KRTAP5-6, Q6L8G9

Variant	effect of a mutation on the interaction
P145A	with no effect

Variants of: B2
Conditions: with lims1_human LIMS1, P48059
Sequence of lims1_human LIMS1, P48059 (P48059 whole entry): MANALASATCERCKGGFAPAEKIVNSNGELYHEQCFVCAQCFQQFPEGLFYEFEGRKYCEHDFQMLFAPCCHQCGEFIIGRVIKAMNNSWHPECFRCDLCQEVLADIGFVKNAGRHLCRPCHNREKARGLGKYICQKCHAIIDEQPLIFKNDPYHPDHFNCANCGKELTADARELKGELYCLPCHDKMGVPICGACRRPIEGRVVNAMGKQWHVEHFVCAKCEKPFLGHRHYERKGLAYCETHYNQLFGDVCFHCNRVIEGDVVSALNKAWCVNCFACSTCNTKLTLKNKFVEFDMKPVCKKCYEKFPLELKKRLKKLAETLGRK

Variant	effect of a mutation on the interaction
P57L	disrupting interaction strength

Variants of: B3
Conditions: with atrap_human AGTRAP

Variant	effect of a mutation on the interaction
R441W	with no effect

Variants of: B4
Conditions: with asb13_human ASB13, Q8WXK3

Variant	effect of a mutation on the interaction
A127S	with no effect

Variants of: B5
Conditions: with rab3i_human RAB3IP

Variant	effect of a mutation on the interaction
R235Q	with no effect

Variants of: B6
Conditions: with trip6_human TRIP6, Q15654

Variant	effect of a mutation on the interaction
E368K	with no effect

Reference: IntAct's records for PubMed 29892012
